The target in assay [1] is recombinant wild-type cardiac actin (WTRec-ACTC), as F-actin filaments (human) (UniProt P68032). Description: TIRF microscopy of labelled tropomyosin binding along actin filaments; rhodamine phalloidin-labelled ACTC filaments held on bovine ventricular HMM (0.5 mg/ml) on a nitrocellulose-coated coverslip; Alexa-Tm added while recording at 10 frames per second; fluorescence along a filament normalised from 1 to 100 percent; elongation rate = slope of the binding curve from 0 to 15 s.

For assay [2] the target is unchanged. Kind of assay: co-sedimentation; 7 uM F-actin with 0.1 to 2 uM tropomyosin in 100 mM KCl, 5 mM MgCl2, 20 mM Tris pH 8, 1 h at 25 C; 100,000 rpm 20 min (TLA100); Tm in the pellet by SDS-PAGE densitometry, normalised 0-100; fit to specific binding with Hill slope.

With “Alexa488-labeled tropomyosin (bovine ventricular tropomyosin modified on Cys-190) (from UniProt Q5KR49 1-284) (natural protein)”, in assay [1], the Elongation Rate was 4.56 s⁻¹. Take “tropomyosin purified from bovine ventricular ether powder (from UniProt Q5KR49 1-284)”: the Kd in assay [2] is 533 nM.

The values above are taken from article PMC11652881.
